# Test results taken from patent US8013137B2, “Modified enteropeptidase protein” (National University Corporation Hokkaido University, priority 2006, dated 2011).
# How the values were obtained:
# GD4K-βNA = test: EP activity and kinetic study with specific substrate GD4K-βNA; assay type: biochemical; settings: for Km / kcat: substrate GD4K-βna
# Protocol: (§1) (A) Active recombinant EP proteases were assayed using a GD4K-βNA (SEQ ID NO: 6) substrate as a substrate. Bovine (Nvg), bovine EP protease available from Novagen; Bovine (Neb), bovine EP protease available from NEB. (B) Active recombinant EP proteases were assayed using various synthetic peptide substrates. (C) Active EP proteases were analyzed by gelatin zymography. (D) Fibronectin (4 μg) was incubated with active EPs (100 ng) at 37° C. for 12 h. (E) Laminin ((10 μg) was incubated with active recombinant EPs (100 ng) at 37° C. for 12 h. (F) Two μg of the control protein containing the D4K site (SEQ ID NO: 1) was incubated with active recombinant EPs (100 ng) at 37° C. for 1 h.
# (A) The purity of purified recombinant Medaka EP-1 and EP-2 protease was assessed by SDS-PAGE. Lane 1, Medaka EP fusion protein; lane 2, Medaka EP protease treated with immobilized trypsin; lane 3, Medaka EP protease purified using a resource Q column. (B) The enzyme activities of EP proteases were determined at various pHs using GD4K-βNA (SEQ ID NO: 6) as a substrate. (C) Recombinant Medaka trypsinogen was incubated at 37° C. with EPs for 15, 30 and 45 min. After incubation, samples were analyzed by SDS-PAGE and visualized by CBB staining (upper panel). The relative amount of the active form of Medaka trypsin at each time point were calculated based on the results shown in the upper panel (lower panel). The results are presented as the means (±SD) of three separate experiments.
# (§2) EP activity was routinely determined using the specific substrate Gly-Asp-Asp-Asp-Asp-Lys-β-naphthylamide (GD4K-βNA) (SEQ ID NO: 6) (Sigma) according to the method of Mikhailova and Rumsh (Mikhailova et al., FEBS Lett., 442:226-230 (1999)). Enzyme activity for various 4-methylcoumaryl-7-amide (MCA)-containing peptide substrates was determined by the method of Barrett (Barrett et al., J., Biochem. J., 187:909-912 (1980)). For kinetic studies, initial velocities, extrapolated from the plot of product versus time, were transformed into double-reciprocal plots (Lineweaver et al., J. Am. Chem. Soc., 56:658-663 (1934)). The maximum velocities (Vmax) and Km and kcat values were obtained from the intercepts of these plots. For all experiments, the results of at least three separate determinations are shown.
# [1] = system: recombinant fusion protein of human kallikrein 8 (hK8); test: Cleavage of recombinant fusion protein of human kallikrein 8 (hK8); assay type: biochemical; settings: 37° C., 2 h, 100 ng EP
# Protocol: (§3) (A) A recombinant fusion protein of Medaka gelatinase A (5 μg) was separately incubated with active EP proteases (100 ng) at 37° C. for 1 h, and analyzed by SDS-PAGE. (B) A recombinant fusion protein of human kallikrein 8 (hK8) (5 μg) was incubated with active EP proteases (100 ng) at 37° C. for 2 h. After incubation, the samples were analyzed by SDS-PAGE (upper panel), or assayed for activity with Pro-Phe-Arg-MCA (middle panel), or Boc-Glu(OBzl)-Ala-Arg-MCA (lower panel). […] The samples were then analyzed by SDS-PAGE/Western blotting using anti-human tPA antibody (upper panel) or anti-His probe antibody (lower panel). The position of sctPA (58- and 61-kDa) detected with the antibodies is shown.
# (§4) The effect of Medaka EP serine protease on various fusion proteins containing a D4K-cleavage site (SEQ ID NO: 1) was examined. […]
# Pro-Phe-Arg-MCA = test: Activity assay of EP proteases and EP-treated hK8 samples with Pro-Phe-Arg-MCA (FIG. 4B middle); assay type: biochemical
# Protocol: as §3, §2
# Next, a 35.5-kDa protein of human kallikrein 8 (hK8) in the same E. coli expression system was synthesized. Digestion with Medaka wild-type and mutant EP proteases generated 31.5-kDa active hK8 by cleaving the D4K sequence (SEQ ID NO: 1) (FIG. 4B, Top). […] The EP protease-treated samples were directly assayed for hK8 activity using Pro-Phe-Arg-MCA, a good synthetic peptide substrate of hK8 (Rajapakse et al., FEBS Lett., 579:6879-6884 (2005)). […] The substrate Boc-Glu(OBzl)-Ala-Arg-MCA, which is slightly cleaved by active hK8, was rapidly hydrolyzed with the samples treated with mammalian, but not Medaka, EP proteases (FIG. 4B, Bottom).
# [2] = Enzyme stability, residual activity using GD4K-βNA; assay type: physicochemical
# Protocol: […] Aliquots of the reaction mixtures were taken at the indicated times for an activity assay using GD4K-βNA (SEQ ID NO: 6) as a substrate. The enzyme activities relative to that at 0-time are shown.
# […] The enzyme activity was measured at various time points (0 to 96 h) using GD4K-βNA (SEQ ID NO: 6) as a substrate.
# [3] = system: D4K-cleavage site-containing control protein; test: Cleavage of D4K-cleavage site-containing control protein (Novagen); assay type: biochemical; settings: 37° C., 1 h, 100 ng EP
# Protocol: as §1, §4
# [4] = system: recombinant Medaka trypsinogen; test: Activation of recombinant Medaka trypsinogen, SDS-PAGE; assay type: biochemical; settings: 37° C., 15, 30 and 45 min
# gelatin = test: Gelatin zymography; assay type: biochemical; settings: FIG. 2C
# Protocol: as §1, §4
# [5] = system: Boc-Glu(OBzl)-Ala-Arg-MCA, Z-Phe-Arg-MCA, and Pro-Phe-Arg-MCA; test: Amidolytic activity for synthetic MCA-containing peptide substrates (panel); assay type: biochemical; settings: FIG. 2B
# Human plasma fibronectin = test: Hydrolysis of fibronectin, SDS-PAGE; assay type: biochemical; settings: 37° C., 12 h, 100 ng EP
# Protocol: as §1, §4
# mouse laminin = test: Hydrolysis of laminin, SDS-PAGE; assay type: biochemical; settings: 37° C., 12 h, 100 ng EP
# Protocol: as §1, §4
# [6] = system: human high-molecular-weight (HMW) kininogen; test: Hydrolysis of HMW kininogen, SDS-PAGE; assay type: biochemical; settings: 37° C., 2 h, 100 ng EP
# Protocol: (§5) (A) The specific activities of wild-type (EP-1) and mutant EP protease were determined using synthetic peptide substrates. (B) High-molecular-weight (HMW) kininogen (5 μg) was incubated with active EP proteases (100 ng) at 37° C. for 2 h and analyzed by SDS-PAGE. (C) Fibrinogen (10 μg) was incubated with active EP proteases (100 ng) at 37° C. for 12 h and analyzed by SDS-PAGE.
# (§6) The effect of Medaka EP serine protease on various fusion proteins containing a D4K-cleavage site (SEQ ID NO: 1) was examined. Human plasma fibronectin (Chemicon, Temecula, Calif.), human fibrinogen (Merk Biosciences, Tokyo, Japan), human high-molecular-weight (HMW) kininogen (Calbiochem, La Jolla, Calif.), mouse laminin (Biomedical Technologies Inc., Stoughton, Mass.), D4K-cleavage site-containing (SEQ ID NO: 1) control protein (Novagen), Medaka gelatinase A (Ogiwara et al., Proc. Natl. Acad. Sci. USA, 102:8442-8447 (2005)) and trypsinogen (this study), human kallikrein 8 (hK8) (Rajapakse et al., FEBS Lett., 579:6879-6884 (2005)) and human tissue-type plasminogen activator (tPA) were incubated at 37° C. in 20 mM Tris.HCl buffer (pH 7.4) containing 50 mM NaCl and 2 mM CaCl2 with various EP serine proteases at ratios (w/w) ranging from 20:1 to 100:1. After incubation, samples were subjected to SDS-PAGE followed by Coomassie Brilliant Blue staining. […]
# [7] = system: human single-chain tPA fusion protein; test: Cleavage of human single-chain tPA fusion protein, Western blotting; assay type: biochemical; settings: 37° C., 1 h, 100 ng EP
# [8] = system: recombinant fusion protein of Medaka gelatinase A; test: Cleavage of recombinant fusion protein of Medaka gelatinase A; assay type: biochemical; settings: 37° C., 1 h, 100 ng EP
# [9] = system: GD4K-βNA and the three MCA-containing substrates; test: Specific activities of wild-type and mutant EP protease using synthetic peptide substrates (FIG. 3A); assay type: biochemical
# Protocol: as §5, §2
# human fibrinogen = test: Hydrolysis of fibrinogen, SDS-PAGE; assay type: biochemical; settings: 37° C., 12 h, 100 ng EP
# Protocol: as §5, §6
# medaka EP-2 protease = test: Inhibitor assay, enzyme activity measured using GD4K-βNA as a substrate; assay type: biochemical, medaka (Oryzias latipes); settings: inhibitor 0.1 mg/ml; GD4K-βNA substrate; 10 min preincubation
# medaka EP-1 protease = test: as above; assay type: biochemical, medaka (Oryzias latipes); settings: inhibitor 0.1 mg/ml; GD4K-βNA substrate; 10 min preincubation
molecule,measurement,setting,value
Porcine: active recombinant enzyme of the porcine EP serine protease domain (Ile800 to His1034) (protein) IVGGNDSREGAWPWVVALYYNGQLLCGASLVSRDWLVSAAHCVYGRNLEPSKWKAILGLHMTSNLTSPQIVTRLIDEIVINPHYNRRRKDSDIAMMHLEFKVNYTDYIQPICLPEENQVFPPGRICSIAGWGKVIYQGSPADILQEADVPLLSNEKCQQQMPEYNITENMMCAGYEEGGIDSCQGDSGGPLMCLENNRWLLAGVTSFGYQCALPNRPGVYARVPKFTEWIQSFLH,Km,GD4K-βNA,400 µM
same,kcat,GD4K-βNA,8.83 s⁻¹
same,cleavage of hK8 fusion protein,[1],extensively degraded the substrate
same,enzyme activity of the EP protease itself with Pro-Phe-Arg-MCA,Pro-Phe-Arg-MCA,considerable enzyme activities were detected
"EP-1: recombinant serine protease domain of Medaka (Oryzias latipes) enteropeptidase-1, wild type, SEQ ID NO: 2 (protein, Oryzias latipes) VVGGVNAEKGAWPWMVSLHWRGRHGCGASLIGRDWLLTAAHCVYGKNTHLQYWSAVLGLHAQSSMNSQEVQIRQVDRIIINKNYNRRTKEADIAMMHLQQPVNFTEWVLPVCLASEDQHFPAGRRCFIAGWGRDAEGGSLPDILQEAEVPLVDQDECQRLLPEYTFTSSMLCAGYPEGGVDSCQGDSGGPLMCLEDARWTLIGVTSFGVGCGRPERPGAYARVSAFTSWIAETRRSSFSDLD",rate of GD4K-βNA cleavage compared with porcine and bovine enzymes,GD4K-βNA; FIG. 2A,at a rate comparable to those of the porcine and bovine enzymes
same,activity for GD4K-βNA relative to EP-2,GD4K-βNA; FIG. 8B,approximately three times more active than EP-2
same,pH of maximal activity for GD4K-βNA,"GD4K-βNA; serine protease domain, FIG. 8B",8
same,Km,GD4K-βNA,700 µM
same,kcat,GD4K-βNA,15.7 s⁻¹
same,stability of enzyme activity on storage,[2]; 4° C.,the initial enzyme activity was retained at both temperatures for at least six months
same,loss of enzyme activity,"[2]; 37° C., neutral pH, after 4 days of incubation",about 30%
same,stability of enzyme activity on storage,[2]; −20° C.,the initial enzyme activity was retained at both temperatures for at least six months
same,cleavage of fusion protein containing an EP-cleavage site (Novagen),[3],specifically cleaved the fusion protein to generate two polypeptides having expected molecular masses of 16- and 32-kDa
same,conversion of recombinant Medaka trypsinogen to active trypsin,[4],converted to active trypsin by EP-1 faster than by EP-2
same,hydrolysis of gelatin,gelatin,Little or no hydrolysis
same,enzyme activity of the EP protease itself with Pro-Phe-Arg-MCA,Pro-Phe-Arg-MCA,"none of the Medaka EP proteases (wild-type EP-1, K63R, E173A, or E193A) showed any significant enzyme activity"
same,amidolytic activities for synthetic MCA-containing peptide substrates compared with mammalian EP proteases,[5],much lower than those of the EP proteases of mammalian origin
same,hydrolysis of fibronectin,Human plasma fibronectin,Little or no hydrolysis
same,hydrolysis of laminin,mouse laminin,Little or no hydrolysis
"E173A: EP-1 with E173A mutation, SEQ ID NO: 4 (protein, Oryzias latipes) VVGGVNAEKGAWPWMVSLHWRGRHGCGASLIGRDWLLTAAHCVYGKNTHLQYWSAVLGLHAQSSMNSQEVQIRQVDRIIINKNYNRRTKEADIAMMHLQQPVNFTEWVLPVCLASEDQHFPAGRRCFIAGWGRDAEGGSLPDILQEAEVPLVDQDACQRLLPEYTFTSSMLCAGYPEGGVDSCQGDSGGPLMCLEDARWTLIGVTSFGVGCGRPERPGAYARVSAFTSWIAETRRSSFSDLD",Km,GD4K-βNA,300 µM
same,kcat,GD4K-βNA,5.33 s⁻¹
same,cleavage of hK8 fusion protein,[1],no serious reduction of the D4K (SEQ ID NO: 1) cleaving activity
same,enzyme activity of the EP protease itself with Pro-Phe-Arg-MCA,Pro-Phe-Arg-MCA,"none of the Medaka EP proteases (wild-type EP-1, K63R, E173A, or E193A) showed any significant enzyme activity"
same,nonspecific proteolytic activity for human HMW kininogen,[6],retained a low nonspecific proteolytic activity
same,cleavage of human single-chain tPA fusion protein,[7],no serious reduction of the D4K (SEQ ID NO: 1) cleaving activity
same,cleavage of Medaka gelatinase A fusion protein,[8],no serious reduction of the D4K (SEQ ID NO: 1) cleaving activity
same,enzyme activity for synthetic peptide substrates compared with the wild-type enzyme,[9],significantly lower activities than the wild-type enzyme toward all the synthetic substrates tested
same,nonspecific proteolytic activity for human fibrinogen,human fibrinogen,retained a low nonspecific proteolytic activity
SBTI (protein) DFVLDNEGNPLENGGTYYILSDITAFGGIRAAPTGNERCPLTVVQSRNELDKGIGTIISSPYRIRFIAEGHPLSLKFDSFAVIMLCVGIPTEWSVVEDLPEGPAVKIGENKDAMDGWFRLERVSDDEFNNYKLVFCPQQAEDDKCGDIGISIDHDDGTRRLVVSKNKPLVVQFQKLDKESL,Inhibition (%) EP-2,medaka EP-2 protease,99%
same,Inhibition (%) EP-1,medaka EP-1 protease,99%
